Assay results: the supplement of paper PMC12042874
± gives the uncertainty stated by the source.

Assay: amyloid nucleation score (Sup35N fusion, yeast selection) (log enrichment); library NNK1; higher = more nucleation; inactive = no reads after selection
Outline: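 The nucleation score is a DiMSum log enrichment of output over input reads, centred on the mode score of non-aggregating sequences. Sequences under 100 input reads were excluded, and reads came from Illumina sequencing of plasmid inserts. Psi-negative yeast expressing Sup35N fused to peptides of 20 random codons were induced with 100 μM copper sulfate for 24 hours and grown 7 days at 30°C on medium lacking adenine and uracil. Random libraries had three technical output replicates.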

| Substance | amyloid nucleation score |
| --- | --- |
| VYCSLPRFRHLTSSILVTII | -0.07 ± 1.4 |
| VKESRCCSYGTVRSISQGLG | -0.512 ± 0.89 |
| RDCPGL | -0.95 ± 2.7 |
| RVEVSGVLALANPLVPF | 0.92 ± 0.6 |
| THNFEGLSVWDLKDLKCCS | 5.16 ± 0.087 |
| NSRMMLGVLSSVAYGVRMVW | 0.651 ± 0.56 |
| NAAYRVWMWKSLVRSLGRYK | 0.647 ± 0.4 |
| MPGNQYCSVSYLYQRSSGTV | 0.384 ± 0.45 |
| NKWSRSGKRCAKMGNSCSDE | 1.49 ± 0.69 |
| IGMRCWTACSSKRFESCRRV | 0.743 ± 0.44 |
| PFYNSQ | -0.371 ± 0.41 |
| SILCIF | 0.338 ± 1.2 |
| KVPDALFVDRLLYQVISCIH | 3.47 ± 0.084 |
| SATNCRTGKDCRERGHTLGL | 0.628 ± 0.33 |
| PRNQNMT | 0.992 ± 1 |
| SYLTWDHLEVNLCTYSILGR | 0.45 ± 0.52 |
| RLYYLGMSGYLRHNPASCVL | -1.56 ± 2.7 |
| GNNFFIIVAVLTQKNSAVRV | 1.19 ± 0.22 |
| FMIAFVFSKTRGQSIVSYSV | -0.747 ± 0.85 |
| FSTVILSAYSAFSFGIYLLS | 1.46 ± 0.33 |
| FNRLSCFFSKSHPVQTGYNS | -0.01 ± 0.51 |
| RVDGHTVR | 2.4 ± 0.14 |
| GCSLWVGVLCKNCFFDDLIM | 5.807 ± 0.055 |
| AEKSFWHSSNPFIALPRTHR | -1 ± 0.93 |
| SNQQLRWCECVYNGATGKVK | 1.35 ± 0.47 |

| Substance | amyloid nucleation score |
| --- | --- |
| HFMAI | -1.55 ± 0.8 |
| YDNWVVGNYGLSAERICRVE | 0.085 ± 0.77 |
| DPAYEQGGLFEVGTIHCNIK | 0.527 ± 0.46 |
| VWCRNAVDTMLIPMCTTPGY | 0.372 ± 0.6 |
| ANLKISSALDVVRHRRKYQY | 0.014 ± 0.54 |
| SLACRVGKYNHSYLSSLV | 0.583 ± 0.4 |
| RGFCTGNDVF | inactive |
| VIASSATGYIHR | 2.46 ± 0.12 |
| GLYPKYNVGLNN | -0.376 ± 0.56 |
| HSGGVTIQLCSKACVYSGAG | 0.754 ± 0.19 |
| FSLRLRDSWWAHSGRLYAYK | -0.428 ± 0.56 |
| AWVYSYSRSILMWGVTGLWV | 0.77 ± 0.61 |
| MKVRISEILEILKVSFKNFP | -1.21 ± 1.4 |
| PGTGPVCQNGDVAF | -0.948 ± 1.7 |
| ISSILFLQCLSWGGNR | 5.38 ± 0.095 |
| AHFVRVDHNGGGLCMLGISR | -1.21 ± 0.86 |
| YSVWVYRLMRYELNVTFCR | 0.093 ± 0.2 |
| GKCLIMKQRLALKSFFNFQC | inactive |
| LPMLLFAHITFNMLNDVSPN | 5.94 ± 0.086 |
| ESFILVFGGCCNWFGCVYLM | 6.537 ± 0.06 |
| NVDWSPKRNINMGGWEKWLV | 0.261 ± 0.92 |
| DSSWTWKDVV | 0.397 ± 1.2 |
| TSALWEVLW | 0.191 ± 0.58 |
| LYVVSSVFLGEPVRKQVYQI | -0.678 ± 0.96 |
| NRYIRELGRKTYVLRKEFRG | -0.274 ± 1.2 |

| Substance | amyloid nucleation score |
| --- | --- |
| GKLSSLLMFCRNSLFVGFLG | -0.086 ± 0.35 |
| ATPMFNVPVHRCVKKV | -0.206 ± 0.46 |
| FKCYWAVCIELWYGCSTVGL | 0.588 ± 1.2 |
| MRSMGLCTTGCQIDSRRVRW | 0.947 ± 0.61 |
| CDCTNT | -0.78 ± 1.4 |
| DGFMCFLYKLASQT | 0.158 ± 0.78 |
| YSKWSISTFECMWAKNWRGD | 1.66 ± 0.39 |
| CIDDFSNFVRNVGAFGEYSF | -0.752 ± 0.53 |
| DLNLFDRNHVELRMIVD | 0.726 ± 0.65 |
| MICYLF | 0.019 ± 0.26 |
| VLHFHVDDMDYNFFSW | 0.578 ± 0.33 |
| CFVGYQW | 0.622 ± 0.63 |
| TYNCILNSCSSSYTKVLV | 0.703 ± 0.24 |
| TLNLWSAWLLFPYDLAGIFY | -0.199 ± 0.33 |
| IESEGSWRIHWK | 0.638 ± 0.39 |
| MSASLWRGNKVDHWHSECYK | -0.661 ± 0.64 |
| WHLSMRLDLPT | 0.363 ± 0.65 |
| GVDKASYPHSFGEQWLSLSL | 0.844 ± 0.97 |
| SMVSFII | -0.278 ± 0.72 |
| CGKSIEETSLRNPIPGNVLG | 0.476 ± 0.55 |
| CFKGF | 0.946 ± 0.49 |
| VGVWLFCLAYWE | inactive |
| SKILGISKVNCGALL | -1.82 ± 1.8 |
| SGSVTVCGIATTPCNMGDRK | 0.405 ± 0.79 |
| AFKNAAGMRGMTWISSEVGA | 0.145 ± 0.42 |

| Substance | amyloid nucleation score |
| --- | --- |
| WHTRDYLKRRL | 0.906 ± 0.75 |
| ALFGERPCCRC | 0.158 ± 0.28 |
| GFSRYSPRSKFFNSLVLKSS | -0.171 ± 1.1 |
| WNQTSPRQCAVTMSANVTGN | 0.575 ± 0.68 |
| YGILSLRICSLENSLSA | -1.34 ± 1 |
| VDIKFFMGLAFMWRYSSTAD | -0.063 ± 0.39 |
| LSGTTLIPEYILRSSNPSI | 0.147 ± 1.6 |
| FNLVKT | 0.704 ± 0.69 |
| YSVINWFMVAYYRADRLVNG | -0.144 ± 1.2 |
| VLFGTCCRVILLWSV | 2.04 ± 0.43 |
| SFRFNGGTFVHSSKTKP | 0.441 ± 0.3 |
| VLCLWISGLPVLCSVCDPLV | 0.1 ± 0.45 |
| WDHLRGLTCNVFIMIVKSFF | 1.4 ± 0.36 |
| FRDYLAKPCGGWEEYLVDDT | 0.68 ± 0.48 |
| YTHDIRSVGGLQESGLGVWV | -0.094 ± 1.1 |
| LACSVAA | -0.493 ± 0.34 |
| VMKELLMTHLLSCCLYSLCL | 1.28 ± 0.34 |
| GKSTCFSMKQECLAEREEEG | 0.257 ± 0.81 |
| CGMMVSEGSVSCRSLPIYLA | 0.275 ± 0.34 |
| VRWNWSGPNELYLRLFCRLP | -0.508 ± 0.39 |
| REEYYGIPSEINGHTTLVYS | 1.03 ± 0.72 |
| DSYCLRMPIGSCIDWWGKGV | -0.058 ± 0.61 |
| ISDCNRMFTSLSWDMSSPLI | 1.75 ± 0.57 |
| GVSMNSFLICDFDIWQIKTR | -0.162 ± 0.22 |
| TRNSDNVWKFEGVFHNLETW | 0.43 ± 0.48 |

| Substance | amyloid nucleation score |
| --- | --- |
| LWDVRPWRWVWEWENVNYGK | 0.382 ± 0.54 |
| VYSGYSCCAWLLIWTSDGTD | 8.255 ± 0.048 |
| YRCGECNSSVMCMGLRCLWM | 5.87 ± 0.059 |
| GFGAQPWRARSMFYK | 0.566 ± 0.67 |
| RIRIVNITGAESPMLCLNHE | 4.42 ± 0.12 |
| LYIQSSNYRDMVYPYSVVPL | 1.95 ± 0.28 |
| RSCMRPFIGIMSSSPQIDKA | -0.53 ± 0.77 |
| TSVHDRQELRDRLV | 0.69 ± 0.32 |
| MNIVSTRS | 0.231 ± 0.22 |
| FVTDMAYNMMESGLHT | 6.44 ± 0.044 |
| FRVYVSCVLCNDCVVYHRFE | 7.602 ± 0.072 |
| KRWYTCYVYVFRICMRVLCR | 0.731 ± 0.38 |
| EVADVGKMMIVVGDCRVFRW | 5.593 ± 0.048 |
| YAQPIFKLCRTG | -0.921 ± 2.4 |
| QRLFRYNPTKSRGLCNNTWA | 0.59 ± 0.22 |
| SWFYDGCSRPWRGIGDRRVC | -0.812 ± 0.91 |
| VNKGFHFLILTTIINVDYGG | 4.64 ± 0.07 |
| KGAGMQTTQCVCKVYKLSWA | 0.281 ± 0.24 |
| CYMYFWNRVDFT | 0.581 ± 0.17 |
| LLAEASLVKETTLCYHSPSL | 0.04 ± 0.56 |
| SDVGLGNKKSWGVRAVCLDE | 0.452 ± 1.2 |
| RGGKGPRFVYNRFISRAAGR | -0.869 ± 0.74 |
| ELSSLGTCNCFHIRVSWGYM | 0.99 ± 0.37 |
| SEGWHGPGARVCLVFKNSRV | 0.286 ± 0.61 |
| GVMPNCKKNLHEPALERFNT | -0.413 ± 0.61 |

| Substance | amyloid nucleation score |
| --- | --- |
| MDRFRHNLILICLFLPLILV | -0.364 ± 0.75 |
| TASIWNSRFFHNAGSLSGPF | -0.3 ± 1.1 |
| SDGASPFRWCFHSLRMVSAR | -0.647 ± 1.1 |
| HFCHFVGLNPVQKRRVVPWG | inactive |
| PTTYNYSCVGIVSFDFSESI | 5.293 ± 0.052 |
| ERPSRN | 0.22 ± 0.93 |
| MHCLGLAWALELVSLLC | -0.374 ± 0.77 |
| SGCLLSDGEF | 0.046 ± 0.32 |
| NLILIR | 0.72 ± 0.61 |
| YYNNC | 0.501 ± 0.39 |
| IKSEAWICCTSLYMNQGDRS | 8.507 ± 0.065 |
| NTAQVLYYL | -0.674 ± 0.22 |
| FRTSVDNLIGSENRISLRTS | 0.541 ± 0.68 |
| LSNSSEVPHNSVNINDFVWD | inactive |
| FSKQTPVASEG | inactive |
| RLWGYCMHSLVFDTNIWHPL | 0.461 ± 0.32 |
| SDGQNRTTMTYFPSVGWVSS | -1.98 ± 2.7 |
| YVCKIYFHDFDRNMGILEDH | 1.13 ± 0.85 |
| YRDSGDRNLGIAPI | 0.449 ± 0.97 |
| LLRSILTMAY | 0.605 ± 0.43 |
| MFFLYCLARRVGKLMECRV | 1.28 ± 0.46 |
| VRDKSGPYYSSV | 0.705 ± 0.4 |
| SKESKSSEARLLIR | -1.39 ± 1.3 |
| HLPGFNIVSYVQSESIMF | -0.08 ± 0.2 |
| LEITTHTSGIILMKGTPLRR | 3.14 ± 0.087 |

| Substance | amyloid nucleation score |
| --- | --- |
| TAIRWHFGNFVIDNIRNRGI | 1.25 ± 0.19 |
| YLSIKVITQGDWKCQVRVLW | -0.332 ± 0.55 |
| AQNLDPQWWCLVRCDCYPL | -0.49 ± 0.65 |
| GTIVEWAT | inactive |
| SALIILMHVV | -0.761 ± 1.2 |
| HLILGLL | -0.54 ± 0.47 |
| LSGGPSGLINAFLYPSPNKW | 0.07 ± 0.81 |
| YSIYRINFPVIALHFTGHCV | -0.902 ± 0.9 |
| ISPRDHESLTNFHVRLCHMR | 0.368 ± 0.57 |
| CSSVAS | 0.113 ± 0.31 |
| LTSWLDYDDISEWHRSDGFR | 0.987 ± 0.57 |
| GICCYNFGRCKMRASPGLCG | -0.999 ± 1.3 |
| FGPMLHTLDLCWRGMWIS | -1.56 ± 2.7 |
| GFSANGLPCGAEAGEVFYTV | -0.725 ± 0.81 |
| SSNYMFVCRSKDLEVLLVGY | 0.398 ± 0.51 |
| EFTGDRQSYFCLQYSCTSLR | -0.096 ± 1.7 |
| ASRVQGMYYHVHQPLKQLWV | inactive |
| DLLDLIQISDSLKILNALPE | 0.845 ± 0.18 |
| VQFLLYSGFVQTILMPKASR | 3.02 ± 0.15 |
| KLNVFDLVNRAKVGHCGSSG | 0.026 ± 0.51 |
